We go through five molecules from publication PMC6365974, “Characterization of an Aldehyde Oxidoreductase From the Mesophilic Bacterium Aromatoleum aromaticum EbN1, a Member of a New Subfamily of Tungsten-Containing Enzymes” (Frontiers in Microbiology, 2019).

The target in one series is T1, AORAa (Aromatoleum aromaticum, UniProt Q5P143).
T1 construct: gene aorB; native heterohexamer α2β2γ2, ca. 280 kDa (subunits 66, 46, 17 kDa), purified from phenylalanine-grown Δpdh cells, no tag; with Iron-sulfur protein, aldehyde oxidoreductase small subunit AorA
The series can be described thus: flavin fluorescence of supernatant of heat-denatured enzyme, phosphodiesterase treatment. It is filed as binding. As to conditions: co-purified cofactor; site AorC (predicted).

For series [1], the system named is c1ccc(C[n+]2ccc(-c3cc[n+](Cc4ccccc4)cc3)cc2)cc1. The series can be described thus: purified protein. As to conditions: artificial electron acceptor, phenylacetaldehyde as co-substrate, 100 mM Tris-HCl pH 8.0, 28°C, probably reacts at an Fe-S cluster.
Series [2] concerns the target T2, AorB, large W-cofactor binding subunit of aldehyde oxidoreductase AORAa from Aromatoleum aromaticum EbN1 (Aromatoleum aromaticum EbN1, UniProt Q5P143 1-616).
T2 construct: AorB, large subunit (66 kDa on SDS-PAGE) of the tungsten-containing aldehyde oxidoreductase of Aromatoleum aromaticum EbN1; also called large subunit; aorB gene product; source: purified from A. aromaticum EbN1 strain SR7Δpdh as part of AORAa (DEAE-sepharose, hydroxyapatite, Superdex 200)
T2 sequence (looked up): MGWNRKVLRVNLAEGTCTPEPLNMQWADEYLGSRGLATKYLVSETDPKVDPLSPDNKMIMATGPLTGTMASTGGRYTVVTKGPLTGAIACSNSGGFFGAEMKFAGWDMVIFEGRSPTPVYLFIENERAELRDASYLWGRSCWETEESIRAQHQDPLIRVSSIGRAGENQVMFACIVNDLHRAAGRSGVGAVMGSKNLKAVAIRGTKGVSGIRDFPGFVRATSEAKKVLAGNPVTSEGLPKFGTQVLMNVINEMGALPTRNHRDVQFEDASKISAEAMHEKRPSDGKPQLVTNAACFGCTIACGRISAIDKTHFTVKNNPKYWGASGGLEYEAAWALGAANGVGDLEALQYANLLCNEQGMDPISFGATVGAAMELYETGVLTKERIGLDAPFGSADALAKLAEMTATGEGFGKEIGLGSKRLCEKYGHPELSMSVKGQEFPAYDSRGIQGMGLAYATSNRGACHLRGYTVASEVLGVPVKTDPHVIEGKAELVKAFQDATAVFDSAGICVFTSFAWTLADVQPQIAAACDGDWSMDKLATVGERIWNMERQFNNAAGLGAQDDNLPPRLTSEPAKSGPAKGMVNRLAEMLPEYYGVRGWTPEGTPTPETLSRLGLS
Put plainly: co-purification by enzyme activity (DEAE-sepharose, hydroxyapatite, Superdex 200 gel filtration); endogenous enzyme purified from cell extract under anoxic conditions, followed by AOR activity; subunits separated by SDS-PAGE and identified by MALDI-TOF of tryptic fragments. As to conditions: partners not purified. On the technique in general: In gel filtration, larger molecules generally elute earlier.

Substrate in series [3]: O=Cc1ccccc1
The series can be described thus: purified protein. As to conditions: electron acceptor benzyl viologen, 100 mM Tris-HCl pH 8.0, 28°C, site AorB (W-cofactor, predicted).

Substrate in series [4]: CC=O
Put plainly: purified protein. As to conditions: electron acceptor benzyl viologen, 100 mM Tris-HCl pH 8.0, 28°C, site AorB (W-cofactor, predicted).

Substrate in series [5]: O=CCc1ccccc1
The series can be described thus: purified protein. As to conditions: electron acceptor benzyl viologen, 100 mM Tris-HCl pH 8.0, 28°C, site AorB (W-cofactor, predicted).

Substrate in series [6]: NC(=O)c1ccc[n+]([C@@H]2O[C@H](COP(=O)(O)OP(=O)(O)OC[C@H]3O[C@@H](n4cnc5c(N)ncnc54)[C@H](O)[C@@H]3O)[C@@H](O)[C@H]2O)c1
The series can be described thus: purified protein. The class given is biochemical, Aromatoleum aromaticum. Conditions: electron acceptor, phenylacetaldehyde as co-substrate, 100 mM Tris-HCl pH 8.0, 28°C, site AorC (FAD, predicted).

As a reminder, the Km is the concentration of substrate that gives half-maximal velocity. One may read the Vmax as the rate approached at saturating substrate. By kcat is commonly meant the number of substrate molecules converted per active site and unit of time at saturation. One may read the kcat/Km as the second-order rate constant that governs catalysis at low substrate concentration.

`Cc1cc2nc3c(=O)[nH]c(=O)nc-3n(C[C@H](O)[C@H](O)[C@H](O)COP(=O)(O)OP(=O)(O)OC[C@H]3O[C@@H](n4cnc5c(N)ncnc54)[C@H](O)[C@@H]3O)c2cc1C` [FAD]: the “flavin fluorescence of supernatant of heat-denatured enzyme, phosphodiesterase t” value at AORAa was “The presence of FAD in AORAa was confirmed by fluorescence spectroscopy”.
As for AORAa (Aromatoleum aromaticum EbN1), in series [1], the Km is 23 µM, the Vmax came out at 21.2 µmol/min/mg, the turnover number (kcat) amounted to 91 s⁻¹ and the kcat/Km was 3.96e+06 M⁻¹ s⁻¹.

B1: AorA, small subunit of aldehyde oxidoreductase AORAa from Aromatoleum aromaticum EbN1 (natural protein, UniProt Q5P144 1-158, looked up)
chain: MWKSLHIDPAKCTGCLQCEMACSYEHTGVINPSKSRIKVFSFEHEGRKVPYTCTQCTEAWCLHSCPVDAIRLDLTTGAKMVFEDTCVGCKVCTIACPFGTINYNQDTGKVQKCDLCEGDPACAKACPTAAITYIDADWTGLARMQAWAAKANTPASAA
notes: AorA, small subunit (17 kDa on SDS-PAGE) of the tungsten-containing aldehyde oxidoreductase of Aromatoleum aromaticum EbN1; predicted to contain four [Fe4S4] clusters; also called electron transfer subunit; aorA gene product; source: purified from A. aromaticum EbN1 strain SR7Δpdh as part of AORAa (DEAE-sepharose, hydroxyapatite, Superdex 200)
As for B1, the binding result in series [2] is listed as “binds”.

B2: AORAa (Aromatoleum aromaticum EbN1) (protein)
chain: MGWNRKVLRVNLAEGTCTPEPLNMQWADEYLGSRGLATKYLVSETDPKVDPLSPDNKMIMATGPLTGTMASTGGRYTVVTKGPLTGAIACSNSGGFFGAEMKFAGWDMVIFEGRSPTPVYLFIENERAELRDASYLWGRSCWETEESIRAQHQDPLIRVSSIGRAGENQVMFACIVNDLHRAAGRSGVGAVMGSKNLKAVAIRGTKGVSGIRDFPGFVRATSEAKKVLAGNPVTSEGLPKFGTQVLMNVINEMGALPTRNHRDVQFEDASKISAEAMHEKRPSDGKPQLVTNAACFGCTIACGRISAIDKTHFTVKNNPKYWGASGGLEYEAAWALGAANGVGDLEALQYANLLCNEQGMDPISFGATVGAAMELYETGVLTKERIGLDAPFGSADALAKLAEMTATGEGFGKEIGLGSKRLCEKYGHPELSMSVKGQEFPAYDSRGIQGMGLAYATSNRGACHLRGYTVASEVLGVPVKTDPHVIEGKAELVKAFQDATAVFDSAGICVFTSFAWTLADVQPQIAAACDGDWSMDKLATVGERIWNMERQFNNAAGLGAQDDNLPPRLTSEPAKSGPAKGMVNRLAEMLPEYYGVRGWTPEGTPTPETLSRLGLS
Consider B2, for which, in “purified protein [3]”, the Km was 67 µM, the Vmax was 21.4 µmol/min/mg, the kcat was 92 s⁻¹ and the catalytic efficiency (kcat/Km) was 1.38e+06 M⁻¹ s⁻¹. Besides, in “purified protein [4]”, the Michaelis-Menten constant (Km) was 141 µM, the Vmax is 23.8 µmol/min/mg, the kcat was 103 s⁻¹ and the kcat/Km was 730000 M⁻¹ s⁻¹. Also, in the series “purified protein [5]”, the Km was 82 µM, the Vmax was 18.9 µmol/min/mg, the kcat is 81 s⁻¹ and the kcat/Km was 990000 M⁻¹ s⁻¹. Besides, in the series “purified protein [6]”, the Km was 63 µM, the maximal velocity (Vmax) is 12.5 µmol/min/mg, the kcat was 54 s⁻¹ and the kcat/Km is 860000 M⁻¹ s⁻¹.

B3: AorC, medium FAD-containing subunit of aldehyde oxidoreductase AORAa from Aromatoleum aromaticum EbN1 (natural protein, UniProt Q5P142 1-424, looked up)
chain: MKHVILGNGPAGVIAAETLRRAAPTDDILLFGSEDAPPYSRMAIPYLLEGNIDESGTWLRKSPGHFDRLRIHEMRGRAVSLDSERRRILFDDGHFESWDRLLIATGSHPVRPPIPGIDLPEVQTCWTLEDARAIARFATPGARVLQLGAGFIGCIIMEALAARGVELTVVEMGDRMVPRMMTPTAGGMIRKWVEDQGVRVVTNAGVSRIDCRASNDAPLDVTLSTGEVVVADLVIVAAGVAPNIAFLEATPVHVAKGVLVDDRLQTSVPGIFAAGDVAEAPDLFTGAHLVAAIQPNAADQARVAALNMAGHEARLKGVLAINVLDTLGLISSSFGQWWGEERERGGAGVEHVDEAAYRYLSLQFKDDVLIGATSIGLTEHVGALRGLIHGRVRLGEWKERLLHSPLQFVDAYIARSQQPMALVR
notes: AorC, medium-sized subunit (46 kDa on SDS-PAGE) of the tungsten-containing aldehyde oxidoreductase of Aromatoleum aromaticum EbN1; predicted FAD-containing; also called medium subunit; medium-sized subunit; source: purified from A. aromaticum EbN1 strain SR7Δpdh as part of AORAa (DEAE-sepharose, hydroxyapatite, Superdex 200)
Regarding B3, the binding result in series [2] is recorded as “binds”.
